Series [1] has as its system HCC1187 cells. Nature of the series: MTT assay of Wnt3a CM-stimulated growth of HCC1187 cells. The format is cell-based, human. The following applies: Mesd 1 μM, 24 h. The procedure: Cell growth and cell proliferation were measured by MTT assay (Promega) and BrdU incorporation using the BrdU ELISA kit (Roche Molecular Systems) according to the manufacturers' instructions. […] Breast cancer cells expressing control or LRP6 shRNA were seeded into 48-well plates. MTT-labeling reagent was added to each well 24 h later, and plates were incubated at 37° C. for 4 h. After the incubation period, the formazan crystals were dissolved in an MTT solubilization reagent and the resulting color was quantified spectrophotometrically. In some experiments, cell proliferation was measured by BrdU incorporation using the BrdU ELISA kit (Roche Molecular Systems) according to the manufacturer's instructions. Briefly, cancer cells expressing control or LRP6 shRNA were plated on 96-well plate. Cells were incubated with BrdU for 24 h, and the newly synthesized BrdU-DNA was then determined by colorimetry using an ELISA reader. All experiments were performed three times in triplicate.
In FIG. 20, * indicates p<0.05 compared to L cell CM; ** indicates p<0.01 compared to L cell CM.
In general terms: Tetrazolium dyes change colour on reduction, which living cells bring about.

In series [2] the target is T1, LRP (Homo sapiens, UniProt Q07954).
T1 construct: U87 cells and SMC express abundant LRP; endogenous in cells; host or cells: U87 glioblastoma cells; human aortic smooth muscle cells
Nature of the series: 125I-Mesd binding to U87 cells and aortic smooth muscle cells expressing abundant LRP. Particulars: 125I-Mesd 5 nM, 4 hours at 4° C. How it is done: (§1) Cells (2×10^5) were seeded into 12-well dishes 1 day prior to assay. Ligand-binding buffer (minimal Eagle's medium containing 0.6% BSA with a different concentration of radioligand, 0.6 ml/well) was added to cell monolayers, in the absence or the presence of 500 nM unlabeled RAP or 500 nM unlabeled Mesd, followed with incubation for 0-4 hours at 4° C. Thereafter, overlying buffer containing unbound ligand was removed, and cell monolayers were washed and lysed in low-SDS lysis buffer (62.5 mM Tris-HCl pH 6.8, 0.2% SDS, 10% v/glycerol) and counted.
To determine whether Mesd binds to other members of the LDLR family, ^125I-Mesd binding analysis was performed with four groups of cells expressing different members of the LDLR family (FIG. 2). In the first experiment, HEK293 cells were transiently transfected with cDNAs for the LDLR, LRP5, LRP6 or empty pcDNA3 vector. […]

Series [3] concerns the target T2, LRP6 (Homo sapiens, UniProt O75581).
T2 construct: expressed in transfected cells; host or cells: human HT1080 cells, retroviral vector pLNCX2
Nature of the series: 125I-RAP binding to LRP6-transduced HT1080 cells. The following applies: 500 nM unlabeled Mesd. How it is done: as §1
Receptor-associated protein (RAP) binds with high affinity to LRP, megalin, VLDLR and apoER2, and with a lower affinity to the LDLR (Bu, G., Int. Rev. Cytol. 209, 79-116. 2001). To determine whether RAP and Mesd bind to identical, overlapping, or different sites on the receptors, we performed binding and competition analysis of these two chaperones with HT1080 cells stably expressing LRP6.
In FIG. 8A, binding of ^125I-RAP (5 nM) to LRP6-transduced HT1080 cells and the control cells was carried out for 4 hours at 4° C. in the absence (total) or presence of 500 nM RAP, or 500 nM Mesd. In FIG. 8B, binding of^125I-Mesd (5 nM) to LRP6-transduced HT1080 cells was carried out for 2 hours at 4° C. in the absence (total) or presence of various concentrations of RAP or 500 nM Mesd. […]

Series [4] can be described thus: Pharmacokinetics of 125I-labeled Mesd or Mesd peptide, intravenous or subcutaneous.
Method: In experiments shown in FIG. 23, pharmacokinetics of Mesd peptide and Mesd were examined. FIG. 23A: Amount of Mesd in serum following a single dose of protein administration. Mice were dosed at 5, 10, 20 mg/kg of Mesd via i.p. and the serum samples were collected from individual mice at the indicated time points. The levels of Mesd in serum were quantified by comparison to Mesd pure protein with known concentrations in Western blot analysis. Values are the average of triple determinations with S.D. indicated by error bars. […] Samples were obtained by terminal bleed under anesthesia at each of the indicated time points (N=3 animals per time point). Radioactivity was measured using a gamma counter and DPM converted to mass units/mL blood using the specific activity (DPM/mass) of each test substance. Data are plotted as mass U/mL of test substance with standard deviation indicated by error bars.

T2 sequence (O75581 20-1613): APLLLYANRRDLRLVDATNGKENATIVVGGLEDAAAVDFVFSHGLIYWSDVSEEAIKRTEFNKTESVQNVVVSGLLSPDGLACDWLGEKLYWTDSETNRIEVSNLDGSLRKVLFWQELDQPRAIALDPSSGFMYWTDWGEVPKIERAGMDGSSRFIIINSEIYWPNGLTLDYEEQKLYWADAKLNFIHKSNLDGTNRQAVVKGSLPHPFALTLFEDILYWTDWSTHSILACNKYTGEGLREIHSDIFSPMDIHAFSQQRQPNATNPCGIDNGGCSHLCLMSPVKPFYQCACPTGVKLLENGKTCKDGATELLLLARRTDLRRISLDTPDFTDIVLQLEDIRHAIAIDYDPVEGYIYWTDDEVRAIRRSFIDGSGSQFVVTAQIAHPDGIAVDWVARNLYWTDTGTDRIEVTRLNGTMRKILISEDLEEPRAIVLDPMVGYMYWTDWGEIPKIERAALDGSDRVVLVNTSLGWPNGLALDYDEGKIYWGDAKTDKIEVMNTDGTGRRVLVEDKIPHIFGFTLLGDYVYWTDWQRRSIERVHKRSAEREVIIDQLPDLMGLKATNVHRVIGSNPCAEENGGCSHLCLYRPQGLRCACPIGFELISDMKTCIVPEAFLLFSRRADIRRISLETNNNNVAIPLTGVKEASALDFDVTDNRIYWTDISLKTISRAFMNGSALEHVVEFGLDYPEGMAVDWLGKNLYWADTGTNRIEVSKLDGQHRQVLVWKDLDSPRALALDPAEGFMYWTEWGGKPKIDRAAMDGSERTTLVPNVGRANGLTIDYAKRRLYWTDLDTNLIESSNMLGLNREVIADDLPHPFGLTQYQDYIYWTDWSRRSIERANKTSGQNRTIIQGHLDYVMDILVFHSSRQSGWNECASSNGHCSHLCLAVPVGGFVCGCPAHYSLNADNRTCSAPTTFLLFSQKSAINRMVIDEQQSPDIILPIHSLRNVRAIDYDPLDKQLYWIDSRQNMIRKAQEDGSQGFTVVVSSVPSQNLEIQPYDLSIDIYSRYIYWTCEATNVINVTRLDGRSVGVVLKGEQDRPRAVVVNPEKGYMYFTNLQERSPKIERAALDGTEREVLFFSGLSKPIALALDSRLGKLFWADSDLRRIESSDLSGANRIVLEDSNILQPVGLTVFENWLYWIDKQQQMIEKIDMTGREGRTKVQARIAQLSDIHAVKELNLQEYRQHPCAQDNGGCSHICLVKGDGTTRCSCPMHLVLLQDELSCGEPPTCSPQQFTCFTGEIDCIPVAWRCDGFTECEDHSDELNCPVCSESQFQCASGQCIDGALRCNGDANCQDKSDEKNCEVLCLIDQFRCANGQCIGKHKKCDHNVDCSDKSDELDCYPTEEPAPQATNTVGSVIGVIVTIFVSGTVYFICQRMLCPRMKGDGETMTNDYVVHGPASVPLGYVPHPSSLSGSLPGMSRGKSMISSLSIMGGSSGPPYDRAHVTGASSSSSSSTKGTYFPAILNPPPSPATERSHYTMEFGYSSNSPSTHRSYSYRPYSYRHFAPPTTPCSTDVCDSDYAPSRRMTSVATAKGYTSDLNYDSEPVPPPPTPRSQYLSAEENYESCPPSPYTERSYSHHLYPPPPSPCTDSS

B1: Mesd: Recombinant full-length mouse Mesd expressed in E. coli, N-terminal polyhistidine tail, lacking the signal peptide (protein)
chain: ADTPGEATPPPRKKKDIRDYNDADMARLLEQWEKDDDIEEGDLPEHKRPSAPIDFSKLDPGKPESILKMTKKGKTLMMFVTVSGNPTEKETEEITSLWQGSLFNANYDVQRFIVGSDRAIFMLRDGSYAWEIKDFLVSQDRCAEVTLEGQMYPGKGGGSKEKNKTKPEKAKKKEGDRKPRASKEDNRAGSRREDL
modifications: left off: small tags and cut ends
notes: Recombinant full-length mouse Mesd expressed in E. coli, N-terminal polyhistidine tail, lacking the signal peptide
For B1, the “Effect on Wnt3a CM-increased cell growth” value in series [1] was “abolished”. In series [2], the “Specific Mesd binding to U87 or SMC” value was “minimal”. In addition, the “Effect of excess unlabeled Mesd on the LRP6-dependent increase of 125I-RAP binding” value in series [3] is recorded as “abolished”. The Bioavailability in series [4] (intravenous (tail vein) or subcutaneous) came out at 60%. The Distribution into tissues entry in series [4] (thyroid/parathyroid, liver, kidney, stomach, gastrointestinal tract) is “rapid and widespread”.

Source of the values: patent publication US8198236B2, “Methods and compositions for the treatment of cancer” (Washington University, priority 2007, dated 2012).
